A protein production outcome set (Wang et al. 2014)

Experiment: label from the status in PepcDB records

Sequence	protein production
EPRVNTSALQKIAADMSNIIENLDTRELHFEGEEVDYDVSPSDPKIQEVYIPFSAIYNTQGFKEPNIQTYLSGCPIKAQVLEVERFTSTTRVPSINLYTIELTHGEFKWQVKRKFKHFQEFHRELLKYKAFIRIPIPTRRHTFRRQN	failed
EQEDRALRSFKLSVTVDPKYHPKIIGRKGAVITQIRLEHDVNIQFPDKDDGNQPQDQITITGYEKNTEAARDAILRIVGELEQM	not failed
EQITHWIVVQQDTTEQQRVQQAMRTQRDRLQRMQGVAQTGGWEYDPKSDSFTGSNEFYRLIGLPQSTNFDLERAFQLYPPSVRGRVKTAAQRCLEDGSPFDMEVPLVSATGQHREVRVRGSAEREEG	failed
EQNSKEKFKQLFRVLEDTFARPLSPYEIETLNQWIDVDKHDSAIIQAALDEANSLNKLSFKYMDRILLNWKKNNV	failed
ERIPLAVGDTPATLYRLEGDAEAPLAVVTHGFGGSRQMMEAISLTLARAGLAVVSFDFRGQGRSAIPMSPDAFPNEAGSSGTTVQLVRQTLEVVEAARALPGIAGPPALIGHSMATDILVRAADRLPEVGPVALISAYSRQVTPETPARLLILSGQREGGLREVALEMARQVAPDAAEGETVRAGAVERRASVAPYVGHAGVLWSPTTLRELRDWL	failed
ERRGFSAEDFKTFHPGGKLGSQLLLAHELAHSGEAVPLLPIGSPMSEAVIQMSSKGFGVVGVVGGDGELVGVITDGDLRRHMSQSLLLLTVETVMSHMPRVITPGMLASAAMEMMQSQKITVLFLVDDVGRPSGILHVHDLLRA	failed
ERRKTLETYQQLFYLLQTNPLYLAKLIFQMPQNKSTKFMDTVIFTLYNYASNQREEYLLLKLFKTALEEEIKSKVDQVQDIVTGNPTVIKMVVSFNRGARGQNTLRQLLAPVVKEIIDDKSLIINTNPVEVYKAWVNQL	failed
ESILANLSAGVIAFSGDWHIRAANTSASRILGVDFSQLAEHRFPEWGGVMPAVASLVETVMQHADSDVESDWQTQLGYDTAQGERTLLVRGARLPEHSSDGYVLVFNDITE	failed
ESYTIPHPSYDQPDSYQEREIVIGNSTYPLPATLTVPKHQRGEKVPVVVLVHGAGIHDRDATYLGTKILRDLAVGLSSNGIAVLRYEKRTLEHALKMSAEPVTLDRDTTDDAIYAAKSAAQQEGIDPNNIFILGHSQGAGTMPRILSKAPSSLVRGSILLAPPAHPLTDIAIDQYQYLGKPQEEIDELKRQAAFIQDPTFNPDHPPAGYNFGSPHFMYDVSRWRPVEEAKSRKEPLLILQGARDYQVTVKNEYTKWQEGLANRRNVQFKKYPKLNHFFTEGDGELSLPSEYEIPANVPEYVIQDIITWVNETK	failed
ESYWRSRMIDAVTSDEDKVAPVYKLEEICDLLRSSHVSIVKEFSEFILKRLDNKSPIVKQKALRLIKYAVGKSGSEFRREMQRNSVAVRNLFHYKGHPDPLKGDALNKAVRETAHETISAIFSEENG	not failed
ETPVGLNLELTDQDGRPMFPDGSAVPYERTRKLVARLAAPLRATSLRVIIVGHTAATVVQAGDDDPLSLSVNRANAVREVLKQEGLPSSQVLSLVGKGDGEPLFPDAPALAANRRVTITLMRENPPLPPDLQR	failed
ETRIIKGFECKPHSQPWQAALFEKTRLLCGATLIAPRWLLTAAHCLKPRYIVHLGQHNLQKEEGCEQTRTATESFPHPGFNNSLPNKDHRNDIMLVKMASPVSITWAVRPLTLSSRCVTAGTSCLISGWGSTSSPQLRLPHTLRCANITIIEHQKCENAYPGNITDTMVCASVQEGGKDSCQGDSGGPLVCNQSLQGIISWGQDPCAITRKPGVYTKVCKYVDWIQETMKNN	failed
EVALRHPQSPKPCLIGNCQGGWAILTLMAANPDVAGVAVVNGAPLSYWGGENGKNPMRYIGGIWGGSWIAQMAGDLGNGKFDGANLVMNFEMANPKVTYWSKYYNLFANLDKEEIRFLNFERWWGGFSLLNVNEMRGIIDNLFIGNKLVHGKIPLGQSGNNLDLRNISVPVIIFCSEGDNITPPQQALNWVSDLYSNTLEIKLDGQVIVYLIHKSVGHLGIFVSSEVAKKEHNQIIDLLN	not failed
EYQVLNLFICGIGTVGGSLVEQIRCQQQKLMMENGLKLHVVGIIDAAKAMFSREGFDLANFREELQKKGKDSNLQTIRDEIVGMNIFNSVFVDCTASPDIASLYKDLLQHNVSVVAANKIAASSAYENYRELKTIARQRGVKYLFETNVGAGLPIINTINDLIHSGDKILKIEAVLSGTLNYIFNK	failed
FCGRARVHTDFTPSPYDTDSLKLKKGDIIDIISKPPMGTWMGLLNNKVGTFKFIYVDVLS	not failed
FDASTLYVPEDFLNSCTPGMRKWWQIKSQNFDLVICYKVGKFYELYHMDALIGVSELGLVFMKGNWAHSGFPEIAFGRYSDSLVQKGYKVARVEQTETPEMMEARCRKMAHISKYDRVVRREICRIITKGTQTYSVLEGDPSENYSKYLLSLKEKEEDSSGHTRAYGVCFVDTSLGKFFIGQFSDDRHCSRFRTLVAHYPPVQVLFEKGNLSKETKTILKSSLSCSLQEGLIPGSQFWDASKTLRTLLEEEYFREKLSDGIGVMLPQVLKGMTSESDSIGLTPGEKSELALSALGGCVFYLKKCLIDQELLSMANFEEYIPLDSDTVSTTRSGAIFTKAYQRMVLDAVTLNNLEIFLNGTNGSTEGTLLERVDTCHTPFGKRLLKQWLCAPLCNHYAINDRLDAIEDLMVVPDKISEVV	failed
FDGNLKRYLKSEPIPESNDGPVKVVVAENFDEIVNNENKDVLIEFYAPWCGHCKNLEPKYKELGEKLSKDPNIVIAKMDATANDVPSPYEVRGFPTIYFSPANKKLNPKKYEGGRELSDFISYLQREAT	not failed
FHWVNDGYADFDGFLAALSSRKRKAIRKERAQAQGFGGQIRELTGGDLRPEHWDAFWRFYQDTGARKWGSPYLTRAFFDIAHQTMADDMVLVLAERDGIPVAGALNFIGREALFGRYWGCVEHHPCLHFELCYYRAIDWAIAHGLARVEAGAQGEHKLARG	not failed
FKGKNLLVIQVESLENFVINKSVNGQEITPNLNKLLKNSLYFSNYNEEVNQGTTSDAELMTNTSIYPVSTGSTFFRYPDNKYYNSLPKILERQGYYTQAMHGDKGSYWNWKPALKSIGFQNIVDSTGFKDDENIGLGLSDGSFLRQAEPMVEASKGPWYNYVITMSGHAPFDLPTKYRELKINSELDSSYLGGYLQSVHYEDKQIGIFLDNLRKSGALDNTMVVIYGDHCGIHKYYQSDVETTKGAESWMIDNHKEVPLIVYNSSLKGKEITTTGGQIDLMPTILYLMGIDKNEYLNTAMGRNLLNTNESYAVWSNGEFIG	failed
FLEVNYYSRVLGMNRVMNVLLPEESDHNPNWTNDSLKDLPVLYLLHGMSGNHFDWQRKSDIERLLRQTKLAVIMPAADLAWYTNTDYGMNYFDAISQELPRKVASLFPQISTKRKKHFVAGMSMGGYGAFKLAFSSSYFSYAASLSGTLISSLNYPGFLDMEKQAYWKGIFGDLDKFSGSKNDIFELAKRQSNTGIELPKLYAWVGQQDFFYGANEKAIPRLRKMGYDVSYETNPGDHEWYYWSKYIENILQWLPINYQAEKRLS	failed
FPIPLPYCWLCRALIKRIQAMIPKGALAVAVAQVCRVVPLVAGGICQCLAERYSVILLDTLLGRMLPQLVCRLVLRCSM	failed
FRAAAVRVRVPATSANLGPGFDALGLALGLYDDVVVRVADSGLHIDIAGEGSETLPRDEKHLLVRSLRTAFDLLGGQPRGLEIVCANRIPHGRGLGSSSAAICAGIVAARAVTIGGEARLDDAALLDLATEIEGHPDNVAACLLGGFTLSWMES	failed
GAEKEDLVQEGILGLLKAIKFYDETKSSFSSFAFLCIRREMISAIRKANTQKHMVLNEALKTNAILEDSAYFDDEGHNINNYKSSESNPEEAYLLKEEIEEFKKFSENNFSKFEKEVLTYLIRGYSYREIATILSKNLKSIDNTIQRIRKKSEEWIKEEENIKR	not failed
GDGLKVSFDVTNTGKVAGADTPQLYVTSGQRKAMLRLAGFQKVDLAPGETKRVTLNVEPRILADYDTAKPGWTIAAGTYPLYVGRNAGEPVLTGSAKLKSWSR	failed
